Paper PMC4839745

Target: HARE(ΔM3) single-motif deletion cytoplasmic domain mutant lacking NPLY2519
Assay: co-IP; HARE variants precipitated from cell lysate (300 μg protein) with goat anti-V5 Ab (2 μg/ml) and Protein A/G Plus Agarose, 4°C; blot with anti-tERK1/2 Ab; cells incubated with or without 10 μg/ml (709 nM) UFH for 20 min; Lysis Buffer with 0.5% Nonidet P-40

| Substance | percent decrease of association (tERK:HARE ratio) against WT HARE [%] |
| --- | --- |
| ERK1 (of ERK1/2, p44/42) (from UniProt P27361 1-379) (enzyme) | 67 |
| ERK2 (of ERK1/2, p44/42) (from UniProt P28482 1-360) (enzyme) | 67 |
